The target of the assay is T1, human ubiquitin (human, UniProt P0CG48 1-76).
T1 construct: ubiquitin, human, the 76 amino acid-long protein (cut product of the polyubiquitin or ubiquitin-ribosomal fusion precursors); Isotope-labelled only (uniformly 15N, arginines 13Cdelta/2Hbeta,gamma/15Nepsilon); No tag is mentioned and the purification uses none; also called arginine-labeled ubiquitin; source: E. coli BL21(DE3), pET-21a(+), purified (heat shock at 70 °C, anion exchange, size …)
The assay can be described thus: NMR titration; 70 µM arginine-labeled (U-15N, 13Cδ/2Hβγ/15Nε Arg) ubiquitin titrated with increasing amounts of unlabeled Sla1 SH3-3; 50 mM Tris-HCl, pH 8.0, 25 °C; 1H-13C HSQC and 1H-15N SOFAST-HMQC, chemical shift perturbations. The settings on record: both partners purified.

B1: third SH3 domain (SH3-3) of yeast endocytic protein Sla1 (domain or fragment)
chain: MASKSKKRGIVQYDFMAESQDELTIKSGDKVYILDDKKSKDWWMCQLVDSGKSGLVPAQFIEPVRDKKHTE
notes: Sla1, yeast, third SH3 domain (SH3-3); residues E367, E371 and F409 are named as lying in the domain (PDB 2JT4); PDB 2JT4 is the cited NMR model of the complex with ubiquitin and may hold other limits; Plasmid bought from GeneCust; No removal of the tag is described; also called Sla1 SH3-3; source: cell-free expression (E. coli S15 extract, pIVEX2.3d vector), purified (HisTrap FF)
As for B1, the binding result is reported as “binds”.
